Results reported in US20230021388A1 (VELOSBIO, published 2023).
Numbering of substitutions follows the chain as printed.

B1: Ab1 Fab variant H2 G67M (Fab, V domains shown)
VH: QVQLQESGPGLVKPSQTLSLTCTVSGYAFTAYNIHWVRQAPGQGLEWMGSFDPYDGMSSYNQKFKDRLTISKDTSKNQVVLTMTNMDPVDTATYYCARGWYYFDYWGHGTLVTVSS
VL: DIVMTQTPLSLPVTPGEPASISCRASKSISKYLAWYQQKPGQAPRLLIYSGSTLQSGIPPRFSGSGYGTDFTLTINNIESEDAAYYFCQQHDESPYTFGEGTKVEIK
notes: Fab
B2: Ab1 Fab variant H2 K73S (Fab, V domains shown)
VH: B1 VH with M57G, K63S
VL: B1 VL
notes: Fab
B3: Ab1 Fab variant H2 P60G (Fab, V domains shown)
VH: B1 VH with P53G, M57G
VL: B1 VL
notes: Fab
B4: Ab1 Fab variant H2 G67S (Fab, V domains shown)
VH: B1 VH with M57S
VL: B1 VL
notes: Fab
B5: Ab1 Fab variant H2 K75A (Fab, V domains shown)
VH: B1 VH with M57G, K65A
VL: B1 VL
notes: Fab
B6: Ab1 Fab variant H3 Y111L (Fab, V domains shown)
VH: B1 VH with M57G, Y101L
VL: B1 VL
notes: Fab
B7: Ab1 Fab variant H3 R108G (Fab, V domains shown)
VH: B1 VH with M57G, R98G
VL: B1 VL
notes: Fab
B8: Ab1 Fab variant H3 F136L (Fab, V domains shown)
VH: B1 VH with M57G, F103L
VL: B1 VL
notes: Fab
B9: Ab1 Fab variant H2 K73C (Fab, V domains shown)
VH: B1 VH with M57G, K63C
VL: B1 VL
notes: Fab
B10: Ab1 Fab variant H2 P60T (Fab, V domains shown)
VH: B1 VH with P53T, M57G
VL: B1 VL
notes: Fab
B11: Ab1 Fab variant H2 K75G (Fab, V domains shown)
VH: B1 VH with M57G, K65G
VL: B1 VL
notes: Fab
B12: Ab1 Fab variant H3 A107V (Fab, V domains shown)
VH: B1 VH with M57G, A97V
VL: B1 VL
notes: Fab
B13: Ab1 Fab variant H2 S68E (Fab, V domains shown)
VH: B1 VH with M57G, S58E
VL: B1 VL
notes: Fab
B14: Ab1 Fab variant H3 A107T (Fab, V domains shown)
VH: B1 VH with M57G, A97T
VL: B1 VL
notes: Fab
B15: Ab1 Fab variant H3 Y111A (Fab, V domains shown)
VH: B1 VH with M57G, Y101A
VL: B1 VL
notes: Fab
B16: Ab1 Fab variant H2 S68Q (Fab, V domains shown)
VH: B1 VH with M57G, S58Q
VL: B1 VL
notes: Fab
B17: Ab1 Fab variant H2 S68I (Fab, V domains shown)
VH: B1 VH with M57G, S58I
VL: B1 VL
notes: Fab
B18: Ab1 Fab variant H3 Y138Q (Fab, V domains shown)
VH: B1 VH with M57G, Y105Q
VL: B1 VL
notes: Fab

Each binder was assayed against T1, recombinant human ROR1 extracellular domain (human, UniProt Q01973 30-406) (assay: capture filter lift).
T1 construct: biotinylated for the filter lifts; also called huROR1-ECD; human ROR1-ECD
Protocol: Subsequently, the filter was applied to the agar plates as described above. For detection of antigen binding, the filter was rinsed briefly in PBS, and transferred to biotinylated huROR1-ECD (ACROBiosystems, cat. #RO1-H522y) in 5% M-P.
Filters were incubated with 2.3 nM biotinylated ROR1 diluted in 5% M-P for 2 h at 25° C. with constant agitation, and washed 5 times, 2 minutes each wash, with constant agitation in PBS-T. Alternatively, filters were washed more rapidly using a squirt bottle and sintered glass funnel for vacuum filtration. The filters were transferred to 10 mL of High Sensitivity Neutravidin, HRP conjugate (Thermo Scientific, cat. #31030) diluted 5000-fold in 1% BSA in PBS and incubated for 1 h at 25° C. The filters were then washed 5 times in PBS-T and were developed with 1-Step Ultra TMB-Blotting.
All libraries were initially screened by capture lift to identify variants with improved binding. The capture lift assay, described in Example 1, enables the filter lift assay to discern variants that bind antigen more strongly based on the staining intensity. In order to determine the optimal concentration of antigen to use for screening, biotinylated huROR1-ECD was titrated on a capture lift of Ab1 Fab. Binding to Ab1 was clearly visible at antigen concentrations ≥23 nM and the signal was diminished at lower huROR1 concentrations. […] In addition, for more stringent screening, filters were probed with lower concentrations of antigen and/or development of the filter was terminated earlier, before the Ab1 staining was visible. […] In this example, approximately 250 library variants were plated. Twelve variants clearly bound huROR1 (FIG. 4, numbered).

T1 sequence (Q01973 30-406 limits assumed): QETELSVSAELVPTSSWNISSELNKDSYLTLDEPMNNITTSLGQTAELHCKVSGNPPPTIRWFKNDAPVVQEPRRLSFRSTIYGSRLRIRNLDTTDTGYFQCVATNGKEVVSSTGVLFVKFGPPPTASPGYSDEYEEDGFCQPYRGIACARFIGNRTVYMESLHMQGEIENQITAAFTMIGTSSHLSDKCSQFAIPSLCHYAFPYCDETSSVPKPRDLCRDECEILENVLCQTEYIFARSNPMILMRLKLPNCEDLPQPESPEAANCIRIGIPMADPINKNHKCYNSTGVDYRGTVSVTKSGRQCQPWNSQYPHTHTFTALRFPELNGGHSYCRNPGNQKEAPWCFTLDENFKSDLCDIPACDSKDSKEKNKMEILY

Binding result, binds:
B1
B2
B3
B4
B5
B6
B7
B8
B9
B10
B11
B12
B13
B14
B15
B16
B17
B18
